The values below come from PMC6504561.

For orientation: Kd means a measure of binding affinity in units of concentration.

For one assay, the target named is DYNLT1 (Mus musculus) (UniProt P51807). Description: NMR. The settings on record: cited from earlier work.
Assay [1] deals with FITC-labelled ARHGEF2 peptide 142-157 phosphorylated on Ser151 (not stated (human or mouse cDNA cloned)). Description: MST.
Assay [2] addresses FITC-labelled ARHGEF2 peptide 876-891 phosphorylated on Ser885 (not stated (human or mouse cDNA cloned)). Briefly: MST.

Chain of ARHGEF2 peptide 133-161 (Q60875 133-161): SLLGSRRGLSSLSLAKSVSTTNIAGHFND
Chain of DYNLT1 (Mus musculus) (P51807 whole entry): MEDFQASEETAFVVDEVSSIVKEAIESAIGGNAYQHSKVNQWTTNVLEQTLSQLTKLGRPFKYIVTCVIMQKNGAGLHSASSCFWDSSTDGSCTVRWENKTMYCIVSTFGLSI

On to “ARHGEF2 peptide 133-161 (from UniProt Q60875)”, for which the Kd with DYNLT1 (Mus musculus) was 80 µM.

“GST-14-3-3 (from UniProt P63101 1-245) (natural protein)”: the results for the Kd in assay [1] and in assay [2] were 11.6 µM and 2.3 µM, respectively.
